We go through one molecule from publication PMC4789767, “Application of linker technique to trap transiently interacting protein complexes for structural studies” (Journal of Biological Methods, 2016).

For the assay, the target named is T1, Calmodulin (CaM), wild type, full length (UniProt P0DP26 1-149).
T1 construct: Used without calcium (buffer with 2 mM EGTA); also called WT CaM; apo-CaM; source: purified, as described previously [19]
The experiment in a line: ITC; VP-ITC; 150 µM CaM (WT or mutant) in the syringe, 10 µM full-length Nm/Ng (WT or mutant) in the cell; Buffer A (20 mM imidazole pH 8.0, 100 mM NaCl, 2 mM EGTA); 25°C; 30 injections of 10 µl. To be noted: both partners purified.

B1: Neuromodulin (Nm), wild type, full length (natural protein)
chain: MLCCMRRTKQVEKNDEDQKIEQDGVKPEDKAHKAATKIQASFRGHITRKKLKGEKKGDAPAAEAEAKEKDDAPVADGVEKKEGDGSATTDAAPATSPKAEEPSKAGDAPSEEKKGEGDAAPSEEKAGSAETESAAKATTDNSPSSKAEDGPAKEEPKQADVPAAVTDAAATTPAAEDAATKAAQPPTETAESSQAEEEKDAVDEAKPKESARQDEGKEDPEADQEHA
notes: also called WT Nm; source: purified, as described previously [19]
As to B1, the binding result is “binds”.
